Tested on: K4 kissing-loop RNA reporter
Assay: apparent KD of K4 kissing-loop reporter; higher = weaker reporter binding
Settings: Eterna round: R107
Method: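 RNA-MaP round R107: designed RNA switches with theophylline, tryptophan, arginine or FMN aptamers are transcribed on-chip within common flanks. They are titrated with a labelled K4 kissing-loop RNA reporter in RNA-MaP buffer (100 mM Tris pH 7.5, 80 mM KCl, 4 mM MgCl2), without ligand or with the indicated ligand. Median apparent KD per design.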

[1] = input ligand: theophylline 20 uM
[2] = input ligand: tryptophan 2.4 mM
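Note: bound reporter read as fluorescence of individual clusters on recovered sequencing chips by microscopy, with normalized cluster intensities fitted with a binding model.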

Row | Sequence | apparent KD of K4 kissing-loop reporter (input ligand: FMN 200 uM) | apparent KD of K4 kissing-loop reporter (input ligand: arginine 13.2 mM) | apparent KD of K4 kissing-loop reporter (input ligand: none) | apparent KD of K4 kissing-loop reporter [1] | apparent KD of K4 kissing-loop reporter [2]
1 | GCAGUGAUGUUGCGGAUGUACAGUGGCGUGCGAGGACCGGUACGGCCGCCACUCGUACAGACCAAGCUAAUACAUCGAUAGGUGA [whbob_SS_Tryp_A_m3] | 344 nM | 247 nM | 353 nM | 287 nM | 218 nM
2 | GGAUAGGACGGAGGAUAUGGUAGUGAUGUUACCAAACUGGUUAAACAUGUCAGAAAACUGGCAUGACCAGAAGGCCGUCCUAUCG [FmnBX 27 G10+C76] | 108 nM | 62.6 nM | 69.6 nM | 61.6 nM | 67.4 nM
3 | AGAUGGCAGUGAUGUUGCUGUUGGAGGGAUAAGGAUAUUGGCUAAACAAGAAGGUAUCGGCGGCAUUGAGGAAUGGGAGGCGCCU [theeternabot_exclusion_KL_FMN_A_7] | 530 nM | 329 nM | 510 nM | 449 nM | 405 nM
4 | GGCUUACUAGUGAUGUUAGUAUUUUCUGAAGGAGCGCGUGAAAACGCAGGUAGGUCGCAGAACCUUGCCAACUAUUUUAGUUGCC [Ex Arginine A K4 28] | 144 nM | 157 nM | 115 nM | 136 nM | 104 nM
5 | UGUCAUUGGUCGGCCGCCACUAGGACCGGGAGUAACCUAGUGAUGUUAGUGUGCUCGGCCGCCACUAGGACCGGGACCGAUGACU [KL-SSTryp-B22 #DoubleAptamer] | 180 nM | 164 nM | 157 nM | 165 nM | 103 nM
6 | CUUAUGGAGUGUCGUACCGGACACUGGGAAGGAGCGCAAUUCUUUGCAGGUAGGUCGCCCAGUGAUGUUGGGUGGCGCUGUCGAA [Xebeor] | 191 nM | 173 nM | 181 nM | 266 nM | 169 nM
7 | GGAUUUGAAAGUGAGUGAUGUUCAUGUUGUGAGGAUAUGUAGAGAUAUAGAAGGCACGUUUGUAUUUUUUUUGUGUGAGAUUAAA [Last Minute #1] | 81.5 nM | 64.9 nM | 65.1 nM | 75.2 nM | 65.5 nM
8 | AAGUUUUAUAAACUCAUGGUUUCGACAGAUACCAGCUUCGAGAGGAGCCCUUGGCAGCUGCAUGAGUGAUGUUCAUGUACGAAGA [KL-XTheoA8] | 377 nM | 362 nM | 480 nM | 416 nM | 359 nM
9 | UGACUGGACUGAAGGAGCGUUCAGGUAGGUCGCUAAGGAGUGAUGUUCCAUAGAAGGAGCGAACAGGUAGGUCGCAGUCUAGUCU [ArgBS 29 #DoubleAptamer #SwitchBubble] | 139 nM | 169 nM | 163 nM | 190 nM | 102 nM
10 | GCAAAGUGUCAUAUUAUCUAGCAGCUGCGAAAGGAUAUGAGAGUGCUCAGAAGGUUCUUGGCGGAGUGAUGUUCCGCGUAAAUGG [theeternabot_exclusion_KL_FMN_A_22] | 84.2 nM | 93.8 nM | 93.9 nM | 103 nM | 81.4 nM
11 | UGUCAUUGGUCGGCCGCCACUAGAAGGUCAAAGACCAUAGAGUGAUGUUCUAAGACGAAAGUCACUAGGACCGGGACCGAUGACU [TrypBS 1 #SwitchBubble #K4Middle] | 744 nM | 1080 nM | 899 nM | 946 nM | 207 nM
12 | UGCCGCAAGGCGAGCGCUCCCACUCCGGAAGGAGCGCCCGCAAGGGCAGGUAGGUCGCCGGAGUGAUGUUCCGGUGGAGGGCUCG [#2 Exclusion - Arginine A Attempt #25 (Inspired by Omei)] | 201 nM | 188 nM | 174 nM | 164 nM | 157 nM
13 | AAUGUGCAGGGAAGGAGCGUAGUCCAGUGAUGUUGGAGUUAAAUACCAGUGAUGUUGGUUAUACAGGUAGGUCGCCCUAAAGCGC [Exclusion Arginine B Gf 5] | 73.5 nM | 67.7 nM | 81.3 nM | 98.3 nM | 71 nM
14 | UACUAUAUUCUGUCGUUUAUAUUAUUUUGUCAGGAUAUCGUUUAUUCGAGAAGGGACACUAUCUAGUGAUGUUAGAUUUUUCUUU [JR_Nu_ExcFMNA_Sub029] | 55.8 nM | 130 nM | 86.7 nM | 108 nM | 67.7 nM
15 | UCGGACCCUGGAGGAUAUGAGUCGAGUGAUGUUCGGCGGUCCAUGCCGAUGCGGCGUUAUGCCCUUUUAGAAGGCCAGGGUCCGA [#2 Exclusion - FMN B Attempt #10 (HarryS)] | 498 nM | 216 nM | 277 nM | 268 nM | 264 nM
16 | CACCCAGUCCUCGAUACCAGACUGGCACGUCAAAAGGUCCAGUGAUGUUGAGCCUAACAAGUCCCUUGGCAGCGACCAGUGUAUU [theeternabot_exclusion_KL_Theo_B_30] | 680 nM | 573 nM | 729 nM | 619 nM | 623 nM
17 | AUUUUGUUGUCAGGAUAUUAGUAUGGUUUUGGUUUGUUAGUGAUGUUGAUGGUUUGUUUAUGUAUUUAAGAAGGGAUUUAGCGGU [swwsgumullin] | 693 nM | 463 nM | 534 nM | 573 nM | 424 nM
18 | GAAAGAAAGUAUGAUACCAGACACCCGAGUGAUGUUCGGAGCAGUGUGUUGUUCUUUUAAGUCCCUUGGCAGCAUAAAAGAAAAG [whbob_SS_Theo_B_sa85] | 116 nM | 107 nM | 127 nM | 114 nM | 87.1 nM
19 | GGAGUUACCUGGGAUACCAGUCGGAGUCCCAGAGCACAGAGUGAUGUUCUGGGAUGUUUCGGCCCUUGGCAGCUCUGGGACUCCC [#2 Exclusion - Theophylline B Attempt #13 (HarryS)] | 482 nM | 254 nM | 142 nM | 402 nM | 222 nM
20 | AAUAAUCUAGGUGAUACCAGCUCAACAUGAGUGAUGUUCGUGAGCUAAUGUAGAGUUGAGAGCCCUUGGCAGCACCUAGAUAAUA [KL-SSTheoB7] | 698 nM | 552 nM | 943 nM | 1140 nM | 626 nM
21 | UGGAUAUAGUGAUGUUAUAUAGAGAUGGAUACCAGCGAAGAGAAUUGCCCUUGGCAGCCGAAAGAAGUAUCAUUAGAGAAGAAUG [ExTheophyl.Ah] | 254 nM | 213 nM | 252 nM | 261 nM | 186 nM

Row | Sequence | apparent KD of K4 kissing-loop reporter (input ligand: FMN 200 uM) | apparent KD of K4 kissing-loop reporter (input ligand: arginine 13.2 mM) | apparent KD of K4 kissing-loop reporter (input ligand: none) | apparent KD of K4 kissing-loop reporter [1] | apparent KD of K4 kissing-loop reporter [2]
22 | UUAGAUGAUUCAUCAAGAUUGAUGAGGAAACGAGGACCGGUACGGCCGCCACUCGAGUGAUGUUCGAGAACCUCAUCAAUCAAUU [AK4.4 Exc Tryptophan A] | 162 nM | 150 nM | 154 nM | 154 nM | 333 nM
23 | AAAAUUGCGGUCGAAAGAACUUCUUGCAUACGAGGACCGGUACGGCCGCCACUCGAGUCAAGUGAUGUUUGAUAAUCUAUUAUUA [JR_ExcTryptoA_Sub012] | 151 nM | 225 nM | 215 nM | 296 nM | 212 nM
24 | UGAUUGCCAGUGAUGUUGGCAUAAACUGAAGGAGCGCGUGAAAACGCAGGUAGGUCGCAGUACCAUGCCAAUUGAUCGAAAGAUC [KL-XArg-A2] | 143 nM | 150 nM | 155 nM | 169 nM | 141 nM
25 | GCGUCACGUCGGGAUACCAGAGAAAUGGCAUUAGCCAAUGACGAGUGAUGUUCGUAGGCGCUCCCUUGGCAGCCCACCGGGAGGA [theeternabot_sameState_KL_Theo_B_21] | 351 nM | 218 nM | 311 nM | 340 nM | 278 nM
26 | AAACAUUGGUCUGAUACCAGUUAGACCGAUAGGUCAAAACUGGAGUGAUGUUCCUAAAAUAACCCUUGGCAGCAGACCGAUGAAA [MAT - Same State Theophlline B - Mod of Eli - D4] | 3640 nM | 285 nM | 596 nM | 439 nM | 552 nM
27 | AAUCUCGUCCUGGAUACCAGUCGCACGGUUUGUCAUGUCAGCCAGUGAUGUUGCCUGCAUGACCCUUGGCAGCCAUUCUAUGAAU [theeternabot_exclusion_KL_Theo_B_45] | 284 nM | 230 nM | 311 nM | 334 nM | 246 nM
28 | AGGAUCCACCAGUGAUGUUGGAAAUACAUCAAGGAUAUGACGAAAGUCAGAAGGUGGUAGACUGGACAAAGUCCAGUUGGAUCCA [KL-SSFMN-A18] | 135 nM | 54.9 nM | 62.7 nM | 112 nM | 66.4 nM
29 | UGUACCGAGUCAGGAUAUGGUAUACCGGAAACGGACCAGUGAUGUUGGAGGCGAAAGCCAUAAAAUCCAGAAGGGACUUGGUACU [FmnBS 19 #SwitchBubble #StaticStem #DoubleMagnetSystem] | 223 nM | 569 nM | 614 nM | 893 nM | 411 nM
30 | UGAUAGGACAGAAGGAGCGGAAUGCUAGUCAAAGACUAGCAACGUUAAACAGGAGUGAUGUUCCAGGUAGGUCGCUGUCCUAUCU [ArgBX 22 #SwitchBubble #StaticStem] | 143 nM | 124 nM | 135 nM | 140 nM | 113 nM
31 | AGUGUGCAAAAGCACACUCAGAACAAGGACAAGGAUAUCUACUAAUAGAGAAGGUGUCCUUUCCUUAGUGAUGUUAAGGAACUGA [Omei KL FMN A SS D v5] | 278 nM | 524 nM | 640 nM | 680 nM | 615 nM
32 | CUUAAGGAGUGUCGUGCCGGACACUGGGAAGGAGCGCAAUUCUUUGCAGGUAGGUCGCCCAGUGAUGUUGGGUCUCGCUGUCGAA [KL-XArg-A20] | 139 nM | 253 nM | 204 nM | 376 nM | 285 nM
33 | CCUUCUCUUGAUAGUGAUGUUAUCAAGGGCAAGGAUAUCAUCUCAAUGAGAAGGUGUCCUUGAUAACAUGGAGGUCUGAAACAGA [Omei KL FMN A Exc C v4] | 157 nM | 165 nM | 209 nM | 159 nM | 206 nM
34 | UGGGAUGUUAAAGGAUAUAGCAGGUGAUAUAAGAAAGUGAGUGAUGUUUAUGUAGAUGAUGAUAUGUUAGAAGGUUAACAAAACG [abcdefghi] | 427 nM | 258 nM | 340 nM | 318 nM | 282 nM
35 | CGUGAGUGCCGACGGUCAUCGGUCCAUGCACGAGGACCGGUACGGCCGCCACUCGAGCGUGGCAGUGAUGUUGCCAGCGCACUAA [Oninvexece] | 114 nM | 89.5 nM | 101 nM | 98.5 nM | 85.6 nM
36 | GGGAAGGGACACAAGGAGGAACGAAGGGAAGGAGCGCCGGAGGAGGCAGGUAGGUCGCCCAACCAGUGAUGUUGGAAUUUAAUCC [Default title] | 242 nM | 125 nM | 287 nM | 114 nM | 196 nM
37 | CACUUACGUAGUGAUGUUACGAUCUCUGAUACCAGACAACUCUAAGUCCCUUGGCAGCAGUCAUUUUGCUUAUUAUUUACUCAAA [JR_ExcTheophyA_Sub017] | 647 nM | 597 nM | 730 nM | 663 nM | 456 nM
38 | GGUAGCAUGGCGGCCGCCACUAAAACUGGAUCGGAAACGAUCCAGUAAUUUCGAGUGAUGUUCGUUAGGACCGGGCCAUGCUACC | 362 nM | 254 nM | 283 nM | 257 nM | 236 nM
39 | AUUUAUGUAUCAGGAUAUUAGUGAUGUUUGUUUUUGUUAGUGAUGUUGAUAUUUGUUUUAUGUAUUUAAGAAGGGAUUGAGAUGU [wwewmullin] | 58.2 nM | 18.5 nM | 34.7 nM | 24.2 nM | 45.2 nM
40 | GGAGGAGAAUAUGAUACCAGCAGAGAGAGAUACGAAGUAUAGUGAUGUUAUAUGAGAGAAUGCCCUUGGCAGCAUAAGACGCAGG [#08 K4 Theophylline B Same State] | 86 nM | 83.3 nM | 116 nM | 95 nM | 84.8 nM
41 | CGUUUAUAGCAGGAUACCAGUACCCAUAAAGUACGUUAAUAGUAGAGUGAUGUUCUAAAGUACCCUUGGCAGCUUCCCGUGACCG [ExTheophylB.V] | 106 nM | 158 nM | 129 nM | 142 nM | 83.3 nM
42 | UGAUACCAGACGGCCGCCACUAGACCAGUCAAAGACUGGAUGUGAUGUUUGAGGAGUGAUGUUCCUAGGACCGGGUCUGGUAUCU [TrypBX 4 #Palindromic #SwitchBubble #StaticStem] | 91.3 nM | 76.7 nM | 82.4 nM | 87.6 nM | 28.2 nM

— the supplement of paper PMC9170038
